Patent US20230265187A1 (published 2023)
Where a chain is given by its changes, count along the chain named.

T1: human TIGIT on Jurkat cells (TIGIT/NFAT reporter Jurkat cells, BPS Bioscience #60538); Promega TIGIT Effector … (human, UniProt Q495A1 22-244)
T1 construct: whole, on cells; Same protein on two bought Jurkat lines (flow cytometry: BPS; bioassay: Promega); also called hu TIGIT cells; cells expressing human TIGIT
T1 sequence (looked up): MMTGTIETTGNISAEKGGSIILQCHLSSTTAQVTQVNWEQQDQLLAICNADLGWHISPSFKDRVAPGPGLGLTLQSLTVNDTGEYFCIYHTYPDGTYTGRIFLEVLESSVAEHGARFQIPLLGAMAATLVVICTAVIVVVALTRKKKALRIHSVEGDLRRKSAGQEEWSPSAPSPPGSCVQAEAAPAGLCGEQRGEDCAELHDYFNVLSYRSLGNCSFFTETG

T2: his-tagged human TIGIT (Acro Biosystems #TIT-H52H3) (human, UniProt Q495A1 22-141)
T2 construct: Bought protein; also called His-tagged-TIGIT (human); not shown: his tag
T2 sequence (looked up): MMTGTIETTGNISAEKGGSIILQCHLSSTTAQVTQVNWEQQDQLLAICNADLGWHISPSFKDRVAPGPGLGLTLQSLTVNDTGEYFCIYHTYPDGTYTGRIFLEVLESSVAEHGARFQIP

T3: his-tagged murine TIGIT (Acro Biosystems #TIT-M52E6) (murine, UniProt P86176 29-148, limits assumed)
T3 construct: Bought protein; also called mouse his-tagged TIGIT; not shown: his tag
T3 sequence (looked up): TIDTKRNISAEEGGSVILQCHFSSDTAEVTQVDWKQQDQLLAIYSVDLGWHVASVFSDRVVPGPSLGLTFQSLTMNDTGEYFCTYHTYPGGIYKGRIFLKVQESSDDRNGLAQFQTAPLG

B1: 43586p1.2.A4 (scFv, V domains shown)
VH: EVQLLESGGGLVQPGGSLRLSCAASGFTVSDHHMSWVRQAPGKGLEWVSGIDPGGKTYYVDSVKGRFTISRDNSKNTLYLQMNSLRAEDTAVYYCAREQYDWNDDMDVWGQGTTVTVSS
VL: QSVLTQPPSASGTPGQRVTISCSGSRSNVGDHYVSWYQQFPGTAPKLLIYANYQRPSGVPDRFSGSKSGTSASLAISGLQSEDEADHYCASWDASLNVWVFGGGTKLTVL
B2: 43352p1.A11 (scFv, V domains shown)
VH: DVQLVESGGGVVRPGESLRLSCAASGFTFSSHAMSWVRQAPGEGLEWVSLTSGNGVSAYYADSVKGRFTISRDNSKNTLYLQMNSLSAEDTAIYYCARGTYLISFFDYWGLGTLVTVSS
VL: QSVLTQPPSASGTPGQRVTISCSGISAKIGNNYVSWYQQLPGTAPKLLIYFNNQRPSGVPDRFSGSKSGTSASLAISGLQSEDEADYYCASWDDSLNAWLFGGGTKLTVL
B3: 43352p1.D11 (scFv, V domains shown)
VH: B2 VH with T51I
VL: B2 VL
B4: 43586p2.F10 (scFv, V domains shown)
VH: VESGGGLVQPGGSLRLSCAASGFTVSDHYVSWVRQAPGKGLEWVSTSSSTNWNDGRTYYADSVKGRFTISRDNSENTLYLQMNSLRAEDTAVYYCAKDQYKGNDYYYYGMDVWGQGTTVTVSS
VL: QSVLTQPPSASGTPGQRVTISCSASNSYIGTKYFYWYQQLPGTAPKLLIYLDSQRPSGVPDRFSGSKSGTSVSLAISGLQSEDEADYYCAFWDDHLHGWVFGGGTKLTVL
B5: 43645p1.B8 (scFv, V domains shown)
VH: EVQLLESGGGLVQPGGSLRLSCAASGFTFSDFWMSWVRQAPGKGLEWVSSIINIQTYDYATYYADSVKGRFTISRDNSKNTLYLQMNSLRAEDTAIYYCAKDVAPGLPGGMDVWGQGTTVTVSS
VL: QSVLTQPPSASGTPGQRVTISCSGSNSNIRNNFVSWYQHLPGMAPKLLIYGNSQRPSGVPDRFSGSKSGTSASLAISGLQSEDEADYYCTSWDFSVNGWVFGGGTKLTVL
B6: 43645p1.C9 (scFv, V domains shown)
VH: B5 VH
VL: B5 VL with M43T, N97S
B7: 43645p1.F7 (scFv, V domains shown)
VH: B5 VH
VL: B5 VL with M43T
B8: 43645p1.F12 (scFv, V domains shown)
VH: EVQLLESGGGLVQPGGSLRLSCAASGFTFSDYWMSWVRQAPGKGLEWVSSINWNGDNTYYYADSVKGRFTISRDNSKNTLYLQMNSLRAEDTAVYYCAKSHTVLQYGMDVWGQGTTVTVSS
VL: QSVLTQPPSASGTPGQRVTISCSGSSSNIQSNYVYWYQQLPGTAPKLLIYGNHQRPSGVPDRFSGSKSDTSASLAISGLQSEDEADYYCATWDASLNVWVFGGGTKLTVL
B9: 43586p2.B05 (scFv, V domains shown)
VH: EVQLLESGGGLVQPGGSLRLSCAASGFTFSDYYMNWVRQAPGKGLEYVASINWNGGTTYYADSVKGRFTISRDNSKNTLYLQMSSLRAEDTAVYYCAKDQNWNFYYGMDVWGQGTTVTVSS
VL: QSVLTQPPSASGTPGQRVTISCSGGSSNIGNNFVSWYQQLPGTAPKLLIYNEIKRPSGVPDRFSASKSGTSASLAISGLQSEDEADYYCASWDGSLRGWVFGGGTKLTVL
B10: 43586p2.C01 (scFv, V domains shown)
VH: B9 VH with S84N
VL: B9 VL
B11: 43586p1.1.C2 (scFv, V domains shown)
VH: B9 VH with Y47W, A49S, K76R, S84N
VL: B9 VL with N31T, F33Y, I49L, N51K, I53D, K54Q, A65G, S91T, G98S
B12: 43645p1.C11 (scFv, V domains shown)
VH: EVQLLESGGGLVQPGGSLRPSCATSGFTFSSYWMSWVRQAPGKGLEWVSGIHISDSTYYADSVKGRFTISRDNSKNTLYLQMNSLRAEDTAVYYCAKGHTVLQYGMDVWGQGTTVTVSS
VL: QSGLTQPPSASGTPGQRVTISCSGDISNTRNNYVSWYQQLPGTAPKLLIYGNHQRPSGVPDRFSGSKSATSASLAISGLQSEDEADYYCGTWDNTLNAWVFGGGTKLTVL
B13: 43586p2.B03 (scFv, V domains shown)
VH: EVQLLESGGGWVQPGGSLRLSCAASGFTFIDYWMSWVRQAPGKGLEWVSSISWIGDTTFYADSVKGRFTISRDSSLNTVYLQMNSLRAEDTAVYYCAKHWTVYQYGMDVWGQGTTVTVSS
VL: QSVLTQPPSASGTPGQRVTISCSGGSSKIGSKYVHWYQQLPGTAPKLLIYKDDQRPSGVPDRFSGSKSGTSASLAISGLQSEDEADYYCAAWDDRVNAWVFGGGTKLTVL

target: T1, human TIGIT on Jurkat cells (TIGIT/NFAT …); test: flow cytometry, TIGIT/NFAT Jurkat cells, 10 ug/ml

Row | Binder | MFI [MFI]
1 | B1 | 13700
2 | B2 | 8790
3 | B3 | 8650
4 | B4 | 14400
5 | B5 | 9410
6 | B6 | 16500
7 | B7 | 15400
8 | B8 | 4100
9 | B9 | 9320
10 | B10 | 7770
11 | B11 | 6710
12 | B12 | 9040
13 | B13 | 6110

target: T1, human TIGIT on Jurkat cells (TIGIT/NFAT …); test: cell-based or functional assay

Row | Binder | max. signal (% of 22G2)
14 | B2 | 101 % of 22G2
15 | B3 | 105 % of 22G2
16 | B12 | 119 % of 22G2

target: T4, His-tagged cynomolgus monkey TIGIT (Acro Biosystems #TIT-05223) (cynomolgus monkey, UniProt A0A7N9I9V4 89-209); test: SPR (Carterra LSA), scFv-Fc captured, His-TIGIT analyte
T4 construct: Bought protein; also called cyno TIGIT; cynomolgus TIGIT; not shown: His tag
T4 sequence (A0A7N9I9V4 entry or part of it): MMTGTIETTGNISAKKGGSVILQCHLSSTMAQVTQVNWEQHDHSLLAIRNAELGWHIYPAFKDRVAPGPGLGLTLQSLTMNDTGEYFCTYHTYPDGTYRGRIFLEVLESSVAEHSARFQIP
Description: (§1) Binding affinities of anti-TIGIT antibodies to human, cyno, and murine TIGIT were measured by Surface Plasmon Resonance (SPR) on a Carterra LSA instrument. Goat anti-human Fc antibody was amine coupled to a HC30M chip. ScFv-Fc supernatants were diluted 30-fold with HBSTE and were captured by the anti-human Fc coupled HC30M chip. A 1:2 dilution series of his-tagged human TIGIT, starting at 400 nM, was injected onto the chip for binding. A dilution series was also carried out for cyno TIGIT and murine TIGIT. Data were analyzed using the Carterra™ Kinetics software.

Row | Binder | Kd [nM]
17 | B6 | 23.5
18 | B11 | 3.69

target: T2, his-tagged human TIGIT (Acro Biosystems …); test: as above
Description: as §1

Row | Binder | Kd [nM]
19 | B2 | 0.0716
20 | B3 | 0.0685
21 | B5 | 0.0906
22 | B6 | 0.195
23 | B7 | 0.0741
24 | B9 | 0.119
25 | B10 | 0.151
26 | B11 | 0.383
27 | B12 | 0.0888
28 | B13 | 67.3

target: T3, his-tagged murine TIGIT (Acro …); test: ELISA, coated His-TIGIT, 1 ug/ml

Row | Binder | Elisa OD450 [OD450]
29 | B1 | 1.82
30 | B2 | 0.056
31 | B3 | 0.046
32 | B4 | 1.29
33 | B5 | 0.052
34 | B6 | 0.065
35 | B7 | 0.489
36 | B8 | 0.052
37 | B9 | 0.07
38 | B10 | 0.046
39 | B11 | 0.046
40 | B12 | 1.69
41 | B13 | 0.047

target: T4, His-tagged cynomolgus monkey TIGIT …; test: ELISA, coated His-TIGIT, 1 ug/ml

Row | Binder | Elisa OD450 [OD450]
42 | B1 | 0.239
43 | B2 | 0.048
44 | B3 | 0.044
45 | B4 | 0.987
46 | B5 | 1.38
47 | B6 | 1.39
48 | B7 | 1.52
49 | B8 | 0.069
50 | B9 | 1.32
51 | B10 | 1.32
52 | B11 | 0.817
53 | B12 | 1.65
54 | B13 | 0.047

target: T2, his-tagged human TIGIT (Acro Biosystems …); test: ELISA, coated His-TIGIT, 1 ug/ml

Row | Binder | Elisa OD450 [OD450]
55 | B1 | 1.69
56 | B2 | 0.677
57 | B3 | 2.15
58 | B4 | 1.75
59 | B5 | 1.76
60 | B6 | 1.86
61 | B7 | 1.97
62 | B8 | 0.477
63 | B9 | 1.84
64 | B10 | 1.81
65 | B11 | 1.49
66 | B12 | 2.18
67 | B13 | 1.16
